In paper PMC2881104:

Biological target: regulatory domain of OxyR (NMB0173) from Neisseria meningitidis, reduced form (N. meningitidis)
Assay: crystal structure; selenomethionine protein, His tag removed, 9 mg/ml in 20 mM Tris pH 7.5, 200 mM NaCl, 2 mM TCEP; reservoir 20% w/v PEG 3350, 0.2 M calcium acetate; 2.4 Å; dimer in the asymmetric unit

stoichiometry N: 2
Substance: regulatory domain of OxyR (NMB0173) from Neisseria meningitidis, reduced form (domain or fragment)
